Publication PMC3777412

Legend:
[1] = target: pY580 peptide (human); assay: SPR
[2] = target: pY542 peptide (human); assay: SPR

“C-SH2 domain of Shp2, histidine-tagged (domain or fragment)” was tested, and the Kd [1] was 294 µM and the Kd [2] was 15.1 µM.
